# Results published in patent US20160129078A1, “Rhomboid Proteins and Uses Thereof” (Queen's University at Kingston, priority 2014, published 2016).
# B1: At1g74130 M: 7/8 M-form splice variant of Arabidopsis At1g74130 rhomboid protein (protein, listed as Arabidopsis thaliana)
# chain: MHAIFCRRVAVGCSSPQLTKLVTKQASQSRHSLSHLLPFDLSSRFVPPYVVSRSARVHGFFAGKLGNTNLKLKFGNVMESRAGFFSSELPSHGFESGGFTGFQKRGWKSWINGANGVVFGLVIANAAVFTMWRVLGKDNMWMVKNFMLSRYSFMTGRIHTLITSGFSHVGATHIILNMMGLCYFGARIARSFGPRYLLKLYFAGALGGSVFFLSSHALSVISLKGQRVVPKDQLKVPIGKLGANGPVYAITLLDMLLYPKVTTYFGLMLRVPVFAGIYSLGLNIIKMLEVCMMGKTTIP
# Tested on: Pseudomonas aeruginosa
# Assay: Enhancement of peptide delivery into Pseudomonas aeruginosa
# Format: cell-based
# Conditions: nine amino acid peptides targeting Type II secretion pseudopilin subunit
# From the text: With the Pseudomonas assay system described above, it was also possible to assess the ability and the utility of At1g74130 protein variants in the delivery of other peptides into cells. The assays were designed in the same manner as above to determine if peptide delivery can be enhanced or facilitated by rhomboids. The other peptides used were designed to inhibit protein secretion, in this case, lipases. The peptides used in these assays were nine amino acids long and targeted a specific region of one protein subunit of the Type II secretion machinery pseudopilin. The inhibitory actions of this nine amino acid peptide are due to interactions with the target region of the protein subunit. If peptide delivery was facilitated or enhanced by rhomboids, outcomes may be observed by changes in cell/colony growth (Pseudomonas) on the minimal media-olive oil plates. Such changes in growth would reflect changes in lipase secretion, which is needed for breaking down olive oil so that the released carbon can be used for cell growth.
# The delivery of the M variant further into the cell releases the impairment and allows growth to resume (i.e., the assay with elution buffer, DMSO, and M). […]
molecule,measurement,value
B1,peptide delivery into cells,facilitation and/or enhancement of peptide delivery
